The target in test [1] is T1, human Y4 receptor (human, UniProt P50391 1-375). Nature of the test: 125I-PP displacement.
Test [2] deals with T1, human Y4 receptor. The experiment in a line: 125I-PP displacement. This is another data set of the same source.

Where two headings read alike, the source gives them in different places. No end group written: not given here.

T1 sequence (P50391 whole entry): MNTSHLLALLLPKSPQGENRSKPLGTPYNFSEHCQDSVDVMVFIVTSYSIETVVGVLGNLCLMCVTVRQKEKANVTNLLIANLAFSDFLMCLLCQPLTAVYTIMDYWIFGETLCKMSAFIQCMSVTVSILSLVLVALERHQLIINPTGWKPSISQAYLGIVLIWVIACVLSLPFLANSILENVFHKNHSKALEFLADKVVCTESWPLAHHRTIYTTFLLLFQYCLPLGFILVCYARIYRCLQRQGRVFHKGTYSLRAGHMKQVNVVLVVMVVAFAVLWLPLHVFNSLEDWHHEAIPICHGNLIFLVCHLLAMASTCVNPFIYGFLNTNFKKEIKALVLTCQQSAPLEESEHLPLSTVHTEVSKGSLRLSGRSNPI

B1: 4058285 (peptide)
chain: PAPLEIVYPGDNATPEQMARYYSELRRYINKLTRPRY
The IC50 is the midpoint of a concentration-inhibition curve. A high value points to lower potency. In turn, B1 showed an IC50 with human Y4 receptor [1] of 210 pM.

B2: compound of SEQ ID NO:702 (code 4058286) (peptide)
peptide: PAPLEAVYPGDNATPEQMARYYSELRRYINKLTRPRY
modifications: ends and bridges not checked
The molecule B2 showed an IC50 with human Y4 receptor [1] of 93 pM.

B3: 4057770 (peptide)
chain: PAPLEPVYPGDNASPEQMARYAAELRRYINKLTRPRY
B3 yielded an IC50 in the test with human Y4 receptor [2] of 81 pM.

B4: 4058052 (peptide)
chain: PAPLEPSYPGDNATPEQMAKYAAALRRYINLLTRPRY
In the test with human Y4 receptor [2], B4 showed an IC50 of 85 pM.

B5: 4057747 (peptide)
chain: PAPLEPHYPGDNATPEQMAKYAADLRRYINKLTRPRF
In turn, B5 registered an IC50 with human Y4 receptor [2] of 66 pM.

B6: 4057898 (peptide)
chain: PLEPHYPGDDATPQQMARYAAELRRYINKLTRPRY
In the case of B6, the IC50 with human Y4 receptor [2] was found to be 63 pM.

B7: 4058166 (peptide)
chain: AAPLEPKYPGDNATPEQLAKYAAELRRYINKLTRPRY
The molecule B7 gave an IC50 with human Y4 receptor [1] of 56 pM.

B8: 4057752 (peptide)
chain: AAPLEPHYPGDNATPEQLAKYAADLRRYINKLTRPRY
The molecule B8 returned an IC50 with human Y4 receptor [2] of 71 pM.

B9: 4057753 (peptide)
chain: PAPLEPHYPGDNATPEQLAKYAADLRRYINKLTRPRY
Take B9: the concentration for half-maximal inhibition (IC50) with human Y4 receptor [2] was 70 pM.

B10: 4057903 (peptide)
chain: GAPLEPHYPGDNATPEQMARYAAELRRYINKLTRPRY
Molecule B10 displayed an IC50 in the test with human Y4 receptor [2] of 90 pM.

B11: 4058079 (peptide)
chain: PAPLEPHYPGDNATPEEMAKYAAELRRYINKLTRPRY
With B11, in the test with human Y4 receptor [1], the IC50 amounted to 71 pM.

B12: 4057784 (peptide)
chain: AAPLEPTYPGDNATPEQLAHYYSELRRYINKLTRPRY
In the case of B12, the IC50 in the test with human Y4 receptor [2] is 102 pM.

B13: 4057879 (peptide)
chain: HAPLEPVYPGDNATPEQMAKYAADLRRYINKLTRPRY
B13: in the test with human Y4 receptor [2], the IC50 was determined as 134 pM.

B14: 4058150 (peptide)
chain: HAPLEPSYPGDNATPEQMAKYAAELRRYINKLTRPRY
With B14, in the test with human Y4 receptor [1], the IC50 was determined as 113 pM.

B15: 4058151 (peptide)
chain: YAPLEPSYPGDNATPEQMAKYAAELRRYINKLTRPRY
B15: the IC50 in the test with human Y4 receptor [1] is 58 pM.

B16: 4057746 (peptide)
chain: AAPLEPHYPGDNATPEQMAKYAADLRRYINKLTRPRF
B16 yielded an IC50 with human Y4 receptor [2] of 72 pM.

B17: 4058149 (peptide)
chain: GAPLEPSYPGDNATPEQMAKYAAELRRYINKLTRPRY
Regarding B17, the half-maximal inhibitory concentration (IC50) with human Y4 receptor [1] amounted to 70 pM.

B18: 4057766 (peptide)
chain: PAPLEPHYPGDNATPEQMAKYAAELRRYINKLTRPRY
For B18, the 50% inhibitory concentration (IC50) with human Y4 receptor [2] turned out to be 89 pM.

B19: 4058159 (peptide)
chain: AAPLEPKYPGDNATPEQMAKYAAELRRYINKLTRPRY
As for B19, the IC50 with human Y4 receptor [1] worked out at 106 pM.

B20: 4058163 (peptide)
chain: HAPLEPKYPGDNATPEQMAKYAAELRRYINKLTRPRY
On to B20, for which the IC50 with human Y4 receptor [1] amounted to 87 pM.

B21: 4058075 (peptide)
chain: YAPLEPEYPGDNATPEEMAKYAAELRRYINKLTRPRY
In the test with human Y4 receptor [1], B21 had an IC50 of 58 pM.

B22: 4058160 (peptide)
chain: GAPLEPKYPGDNATPEQMAKYAAELRRYINKLTRPRY
Regarding B22, the IC50 in the test with human Y4 receptor [1] was determined as 52 pM.

B23: 4057762 (peptide)
chain: AAPLEPHYPGDNATPEQMAKYYSELRRYINKLTRPRY
Turning to B23, in the test with human Y4 receptor [2], the IC50 is 167 pM.

B24: 4057779 (peptide)
chain: AAPLEPSYPGDNATPEQLAHYYSELRRYINKLTRPRY
Take B24: in the test with human Y4 receptor [2], the IC50 was 71 pM.

B25: 4058155 (peptide)
chain: PAPLEPEYPGDNATPEQMAKYAAELRRYINLLTRPRY
In the test with human Y4 receptor [1], B25 came in with an IC50 of 125 pM.

B26: 4058153 (peptide)
chain: PAPLEPSYPGDNATPEQMAKYAAELRRYINLLTRPRY
The molecule B26 came in with an IC50 with human Y4 receptor [1] of 107 pM.

B27: 4058298 (peptide)
chain: AAPLEPVYPGDNATPEQLARYYSELRRYINKLTRPRY
B27 had an IC50 in the test with human Y4 receptor [1] of 72 pM.

B28: 4057769 (peptide)
chain: PAPLEPVYPGDNATPEELARYAAELRRYINKLTRPRY
In the test with human Y4 receptor [2], B28 gave an IC50 of 117 pM.

B29: 4058078 (peptide)
chain: PAPLEPEYPGDNATPEELAKYAAELRRYINKLTRPRY
Take B29: the IC50 in the test with human Y4 receptor [1] came out at 72 pM.

B30: 4058168 (peptide)
chain: PAPLEPKYPGDNATPEQLAKYAAELRRYINKLTRPRY
On to B30, for which the IC50 in the test with human Y4 receptor [1] turned out to be 48 pM.

B31: 4057756 (peptide)
chain: PAPLEPHYPGDNATPEQMAKYAAALRRYINKLTRPRY
Molecule B31 registered an IC50 in the test with human Y4 receptor [2] of 124 pM.

B32: 4058148 (peptide)
chain: AAPLEPSYPGDNATPEQMAKYAAELRRYINKLTRPRY
As for B32, in the test with human Y4 receptor [1], the IC50 worked out at 51 pM.

B33: 4057891 (peptide)
chain: HAPLEPHYPGDNATPEQMAKYAADLRRYINKLTRPRY
In the test with human Y4 receptor [2], B33 came in with an IC50 of 146 pM.

B34: 4057745 (peptide)
chain: APLEPHYPGDNATPEQMAKYAADLRRYINKLTRPRF
As to B34, in the test with human Y4 receptor [2], the half-inhibitory concentration (IC50) was 86 pM.

B35: 4057751 (peptide)
chain: APLEPHYPGDNATPEQLAKYAADLRRYINKLTRPRY
B35 had an IC50 with human Y4 receptor [2] of 65 pM.

B36: 4057754 (peptide)
chain: APLEPHYPGDNATPEQMAKYAAALRRYINKLTRPRY
Regarding B36, in the test with human Y4 receptor [2], the IC50 amounted to 156 pM.

B37: 4058054 (peptide)
chain: YAPLEPHYPGDDATPQQMARYAAELRRYINKLTRPRY
In the test with human Y4 receptor [2], B37 registered an IC50 of 137 pM.

B38: 4058055 (peptide)
chain: YAPLEPHYPGDDATPQQMARYAAELRRYINLLTRPRY
As to B38, the half-maximal inhibitory concentration (IC50) in the test with human Y4 receptor [2] was found to be 110 pM.

B39: 4058057 (peptide)
chain: PAPLEPHYPGDDATPQQMARYAAELRRYINLLTRPRY
B39 returned an IC50 with human Y4 receptor [2] of 111 pM.

B40: 4057758 (peptide)
chain: AAPLEPHYPGDNATPEQMAKYYSALRRYINKLTRPRY
As for B40, the IC50 with human Y4 receptor [2] was found to be 190 pM.

B41: 4057783 (peptide)
chain: PAPLEPTYPGDNATPEQMAHYYSELRRYINKLTRPRY
For B41, the concentration for half-maximal inhibition (IC50) in the test with human Y4 receptor [2] came to 154 pM.

B42: 4057782 (peptide)
chain: AAPLEPTYPGDNATPEQMAHYYSELRRYINKLTRPRY
In the test with human Y4 receptor [2], B42 returned an IC50 of 78 pM.

B43: 4057788 (peptide)
chain: AAPLEPHYPGDDATPQQMAHYYSELRRYINKLTRPRY
B43: the IC50 with human Y4 receptor [2] came to 155 pM.

B44: 4057777 (peptide)
chain: AAPLEPSYPGDNATPEQMAHYYSELRRYINKLTRPRY
B44 displayed a concentration for half-maximal inhibition (IC50) with human Y4 receptor [2] of 88 pM.

B45: 4057763 (peptide)
chain: PAPLEPHYPGDNATPEQMAKYYSELRRYINKLTRPRY
On to B45, for which the IC50 with human Y4 receptor [2] was determined as 174 pM.

B46: 4057789 (peptide)
chain: PAPLEPHYPGDDATPQQLAHYYSELRRYINKLTRPRY
As for B46, the IC50 with human Y4 receptor [2] came to 164 pM.

B47: 4058297 (peptide)
chain: PAPLEPVYPGDNATPEQLARYYSELRRYINKLTRPRY
With B47, the IC50 with human Y4 receptor [1] is 43 pM.

B48: 4057785 (peptide)
chain: PAPLEPTYPGDNATPEQLAHYYSELRRYINKLTRPRY
In turn, B48 yielded an IC50 with human Y4 receptor [2] of 134 pM.

B49: 4057774 (peptide)
chain: PAPLEPSYPGDDATPQQMAHYYAELRRYINKLTRPRY
B49: the IC50 with human Y4 receptor [2] worked out at 227 pM.

B50: 4057897 (peptide)
chain: PAPLEPHYPGDDATPQQMARYAAELRRYINKLTRPRY
Turning to B50, the IC50 with human Y4 receptor [2] is 70 pM.

B51: 4058056 (peptide)
chain: APLEPHYPGDDATPQQMARYAAELRRYINLLTRPRY
Regarding B51, the IC50 with human Y4 receptor [2] is 100 pM.

B52: 4058152 (peptide)
chain: PLEPSYPGDNATPEQMAKYAAELRRYINLLTRPRY
On to B52, for which the IC50 in the test with human Y4 receptor [1] is 88 pM.

B53: 4057900 (peptide)
chain: PLEPHYPGDNATPEQMARYAAELRRYINKLTRPRY
Molecule B53 came in with an IC50 with human Y4 receptor [2] of 90 pM.

B54: 4058067 (peptide)
chain: PLEPTYPGDNATPEQMARYAAALRRYINKLTRPRY
Molecule B54 came in with an IC50 with human Y4 receptor [1] of 47 pM.

B55: 4057893 (peptide)
chain: PLEPHYPGDNATPEQLAKYAADLRRYINKLTRPRY
B55 gave an IC50 with human Y4 receptor [2] of 144 pM.

Values taken from patent publication US20100279930A1 (published 2010).
